Several values for one entry are separate records, joined by “and”; a condition that tells them apart may be missing. Identical values can stand only once.
Target: HLA-B*2704 heavy chain (human)
Assay: non-reducing SDS-PAGE with Western blot; cell surface proteins of C1R-B*2704 or C1R-B*2704 C67S cells biotinylated, extracted in the presence of iodoacetamide, precipitated by avidin-agarose beads, separated by non-reducing SDS-PAGE and blotted with the BH2 antibody; disulfide-linked oligomers judged by mobility

- stoichiometry N: 2 and 4
Substance: HLA-B*2704 heavy chain (natural protein)
